Assay results published in the nanobody polyreactivity screen of Harvey et al. (2022).

Assay: yeast display, Sf9 membrane polyspecificity reagent, FACS + sequencing; frameworks hold sequencing errors
Procedure, shortened: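 Sorting gates, low and high (top ~1%), were placed on anti-HA fluorescence to track expression and on streptavidin fluorescence to track reagent binding. A clone's polyreactivity label is taken from the gate it came out of. The reagent was 10% biotinylated, detergent-solubilized Sf9 membrane, applied for 1 hour at 4 °C to galactose-induced yeast display cells.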

Sequence | polyreactivity (PSR sort gate)
QVQLVESGGGLVQAGGSLRLISAASGRIFDLYTMGWYRQAPGKERELVAAIRWSHGSTYYADSVKGRFTISRDNAKNTVYLQMNSLKPEDTAVYYCAADTRTSYYNDDYDYWGQGTQVTVSS | low polyreactivity
QVQLVESGGGLVQAGGSLRLSCAASGIIFGRYAMGWYRQAPGKERELVAAISSRGGSTYYADSVKGRFTISRDNAKNTVYLQMNSLKPEDTAVYYCNKDDERGKLYYWGQGTQVTVSS | high polyreactivity
QEQLQESGGGQVQAGGSLLLSCAASGNIIRYYYMGWYRQAPGKERELVAAITYGTSTNYADSVKGRFTISRDNAINTVYLQMNSLKPEDTAVYYCAVDVNYGDPLDNWGQGTQVTVSS | high polyreactivity
QVQLVESGGGLVQAGGSLRLSCAACGSTFYAYAMGWYRQAPGKERELVAAIDSGGSTYYADSVKGRFTISRYNAKNTVYLEMNSLKPEDTAVYYCAVRHRYTRAYRGRDYWGQGTQVTVSS | low polyreactivity
QVQLVESGGGLVQAGGSLRLSCAASGFTFYWYAMGWYRKAPGKERELVAAISSSGGRTYYADSVKGRFTISRDNAKNTVYLQMNSLKPEDTAVYYCAAAHTREYYWGQGTQVTVSS | high polyreactivity
QVQLVESGGGLVQAGGSLRLSCAASGSTFGYYAMGWYRQAPGKERELVAAITSGGTTNYADSVKGRFTISRDNAKNTVYLQMNSLKPEDTAVYYCNAVGTFVRYWTDGRDGVTYDYWGQGTQVTVSS | low polyreactivity
QVQLVESGGGLVQAGGSLRLSCAASGRIIGVNAMGWYRQAPGKERELVAAISWSGGSTYYADSVKGRFTISRDNAKNTVYLQMNSLKPEDTAVYYCATTYFYARRPRGDYWGQGTQVTVSS | high polyreactivity
QVQLVESGGGLVQAGGSLRLSCAPSGNTFGRNAMGWYRQAPGKERELVAAISFSGSRTYYADSVKGRFTISRDNAKNTVYLQMSSLKPEDTAVYYCNKRGADWTGFFYYEYDYWGQGTQVTVSS | low polyreactivity
QVQLVESGGGLVQAGGSLRLSCAASGFTFGWYAMGWYRPAPGKERELVAAISSTGGRTYYADSVKGRFTISRDNAKNTVYLQMNSLKPEDTAVYYCAAAYSYGTEYGYWGQGTQVTVSS | high polyreactivity
QVLLVESGGVLVQAGGSLRLSCAASGSTFWSYAMGWYRQAPGKERELVAAISWSGDSTYYADSVKGRFTISRDNAKNTVYLQMNSLKPEDTAVYYCAADYVGGSYEYEYWGQGTQVTVSS | low polyreactivity
QVQLVESGGGLVQAGGSLRLSCAASGSTFQGYAMGWYRQAPGKEREFVAAISRSGGRTYYADSVKGRFTISRDNAKNTVYLQMNSLKPEDTAVYYCAALPYWEYGYWGQGTQVTVSS | high polyreactivity
QVQLVESGGGLVQAGGSLRLSCAASGRIFPSYAMGWYRQAPGKERELVAGIRSGGGSTYYADSVKGRFTISRDNAKNTVYLQMNSLKPEDTAVYYCAADPGLYGDYPLAEDYWGQGTQVTVSS | low polyreactivity
QVQLVESGGGLVQAGGSLRLSCAASGSTLDYNAMGWYRQAPGKEREFVADITWSGGSTHYADSVKGRFTISRDNSKNTVYLQMNSLKPEDTAVYYCATAYYYHGGYYYPYDDYWGQGTQVTVSS | low polyreactivity
QVQLVESGGGLVQAGGSLRLSCAASGFIFYRYAMGWYRQAPGKERELVAAISYSGGSTYYADSVKGRFTISRDNAKNTVYLQMNSLKPEDTAVYYCAKGLTALGDYWGQGTQVTVSS | high polyreactivity
QVQLVESGGGLVQAGGSLRLSCADSGSTFGLYAMGGYRQSPGKEREMVAAITWGGGSTYYADSVKVRFTISRDNAKNTVYFQMNSLKPEDTAVYYCAASPIYPVYRRHGYWGQGTQVTVSW | high polyreactivity
QVQLVESGGGLVQAGGSLRLSCAASGFTFAWYAMGWYRQAPGKERELVAAISWSGGRTYYADSVKGRFTISRDNAKNTVYLQMNSLKPEDTAVYYCAALFLYGYVREYDYWGQGTQVTVSS | high polyreactivity
QVQLGESGGGLVQAGGSLRLSCAASGRIFGGNAMGRYRQAPGKERELVATISSDGSTNYADSVKGRFTISRDIAKNTVYLQMNSLKPEDTAVYYCAKGFYTLTPHGMDYWGQGTQVTVSS | low polyreactivity
QVQLVESGGGKVQAGGSLRLSCAASGLTFSRYAMGWYRQAPGKERELVAAISGRGASTSYADSVKGRFTISRDNAKNTVYLQMNSLKPEDTAVYYCAAQKYYHSYLNRHYYWGQGTQVTVSS | high polyreactivity
QVKLVESAGGLVQAGCSLRLSCAASGSIFLKNAKGWYRQSPGKERELVAGITTRGSTYYADSVKGRFTISRDNAKNTVYLQMNSLKPEDTAVYYCAKRDVGYQTRYFYWGQGTQVTVSS | high polyreactivity
QVQLVESGGGLVQAGGSLRLSCAASGFIFRYYAMGWYRQAPGKERELVAGITRTGGRTYYADSVKGRFTISRDNAKNTVYLQMNSLKPEDTAVYYCAADQYSRWRTKEAFSEYGFDYWGQGTQVTVSS | high polyreactivity
QVQLVESGGGLVQAGGSLRLSCAASGSTFYLNAKGWYRQAPGKERELVAASSSSGGSTYYADSVKGRFTISRDNAKNTVYLQMNSLKPEDTAVYYCACSCVPAVSVYGGDYWGQGTQVTVSS | low polyreactivity

Sequence | polyreactivity (PSR sort gate)
QVQLVESGGGLVQAGGSLRLSCAASGSIFVYYAMGWYRQAPGKERELVAAISSGGRTYYADSVKGRFTISRDNAKNTVSLQMNSLKPEDTAVYYCNAVHYFQYGYYSWGQGTQVTVSS | high polyreactivity
QVQLVESGAGLVQAGGSLRISCAASVITFIPYAMGWYRQAPGKERELLASISDGGGTNYADSVKGRFTISRDNAKNTVYLQMNSLKTEDTAVYYCATDASTYAYYGGYYWGHGTQVTVSS | low polyreactivity
QVHHVESGGGLVQAGGSLRLSCAASGGTFRVYTMGWYRQAPAKVRELVAAITRNGGSTYYADSVKGRFTISRDNAKNSVYVQMNSLKPDDTAVYYCAARGGVPYSHAYDYWGQGTQVTVSS | low polyreactivity
QVQLVESGGGLVQAGGSLRLSCAASGIIFAYYAMGWYRQAPGKERELVASITNTGSTYYADSVKGRFTISRDNAKNTVYLQMNSLKPEDTAVYYCNAVLSSNTKWRYPGDYWGQGTQVTVSS | low polyreactivity
QVQLVESGGGLVQAGGSLRLICAASGYIFPYYAIGWYRQAPGKERELVAGITTDGSSTYYADSVKGRFTISRDNAKNTVYLQMPSLKPEDTAVYYCYGYPGYTWGWYDYWGQGTQVTVSS | low polyreactivity
QVQLVESGVGLVQAGGSLRLSCAASGSIFASYAMGWYRQAPGKERELVAAISRSGTSTRYADSVKGRFTISRDNAKNTVYLQMNSLKPEDTAVYYCAARWYVFFRKYDYWGQGTQVTVSS | high polyreactivity
QVQLVESGGGLVQAGGSLRLSCAASGRIFAGYGMGWYRQAPGKERELVAAISSGGSTYYADSVKGRFTISRDNAKNTVYLQMNSLKPEDTAVYYCATDGQSVPDDYYQNVDYDYWGQGTQVTVSS | low polyreactivity
QVQLVESGGGLVQAGGSLRLSCAASGSIFGVNTMGWYRQAPGKERELVAAISSGGNTHYADSVKGRFTISRDNAKNTVYLQMNSLKPEDTAVYYCAAAYVGIYYVSRRRWERYYYWGQGTQVTVSS | high polyreactivity
QVQHVESGGGLVQAGGSLRLTCAASGRIIAGYAMGWYRQATGKEREMVAAISSRGGSTYYADSVKGRFSISRDNAKNTVDLQMNSLKPVDTAVYYCAKRSWYSYVYGSGDYWGQGTQVTVSS | high polyreactivity
QVQLVESGGGLVQAGGSLRLSCAASGSIFGYYAMGWYRQAPGKERELVAAISWSGGRTYYADSVKGRFTISRDNAKNTVYLQMNSLKPEDTAVYYCNARWRSGPRAYDYWGQGTQVSVSS | high polyreactivity
QVQLVESGGGLVQAGGSLRLSCAASGRIFRVYAMGWSRQAPGKERELVAAIRWTGGSTYYADSVKGRFKISRDNAKNTVYIQIHSLKAEDTAVSYCAAGRYYSDGSRTIYDYWGQGTQVTGSS | high polyreactivity
QVQLVESGGGLVQAGGSLRLSCAASGSTFSNYAMGWYRQAPGKERELVAAISVRGGSTYYADSVKGRFTISRDNAKNTVYLQMNSLKPEDTAVYYCAKYYYYLRSARKYDYWGQGTQVTVSS | high polyreactivity
QVQLVESGGGLVQAGGSLRLSCAASGSTFYYYAMGWYRQAPGKDRELVAAISKRDGRTYYADSVKGRFTISRDNAKNTVYLQMNSLKPEDTAVYYCNAYSYGHYYWGQGTQVTVSS | high polyreactivity
QVQLEESGGGLVQAGGSLRLSCAASGRTFGTNAMGWYRQAPGKERELVAAITTNGGRTYYADSVKGRFTISRDNAKNTVYLQMNSLKPEDTAVYYCAKYYQTDTYIYDYWGQGTQVTVSS | low polyreactivity
QVQLVESGGGSVQAGGSLRLSCAASGFTFRYYAMGWYRQAPGKERELVAGISSRGGSTYYADSVKGRFTISRDNAKNTVYLQMNSLKPEDTAVYYCATERFLLGLGYDYWGQGTQVTVSS | high polyreactivity
QVQLVESGGGLVQAGGSLRLSCAASGRIFYSYAMGWYRQAPGKERELVARISSGGSTNYADSVKGRFTISRDNAKNTVYLQMNSLNPEDTAVYYCAAATIWSGVHYGYWGQGTQVTVSS | low polyreactivity
QVQLVESGGGLVQAGGSLRLSCAASGSIFNAYVMGWYRQAPGKERELVAAISRSGGRTYYADSVKGRFTISRDNATNTVYLQMNCLKPEDTAVYYCAAGYRYNYWGQGSQVTVSS | high polyreactivity
QVQLVESGGGLVQAGGSLRLSCAASGSIFAYAMGWYRQAHGKERELVAAISGGSTYYADSVKGRFTISRENAKNTVYLQMNSLKPEETAVYYCAADLDDERYYWGQGTQVTVSS | low polyreactivity
QVQLVESGGGLVQAGGSLRLSCAASGFTFKCYTMGWYRQAPGKERELVAGISRRGGSTYYADSVKGRFTISRDNAKNTVYLQMNSLKPEDTAVYDCAADSQLTKFYYWGQGSQVTVSS | high polyreactivity
QVQLVESGGGLVQARGSLRLSCAASGRILKRYAMGWYRQAPGKERELVAAISYGGGSTDYADSVKGRFTISRDNAKNTVYLQMNSLKPEDTAVYYCAAKVRYYLSLRGSTTRRDDYYWGQGTQVTVSS | low polyreactivity
